Reference: US20150268247A1, “Assay for Screening of Anti-Viral Compounds That Inhibit Specific Interaction Interfaces Between Cullin5 and an ElonginB/ElonginC/ CBF-beta/HIV-1 Vif Complex” (UNIVERSITY OF ROCHESTER, priority 2012, published 2015)

Molecular target: T1, Cul5(N) (Homo sapiens, UniProt Q93034, L345D/V341R)
T1 construct: GST with 3C protease site (N, cleaved yes); made in house; host or cells: E. coli BL21(DE3), as for VifC/EloB/C
T1 sequence (Q93034 with tags, fused parts or gaps V341R/L345D): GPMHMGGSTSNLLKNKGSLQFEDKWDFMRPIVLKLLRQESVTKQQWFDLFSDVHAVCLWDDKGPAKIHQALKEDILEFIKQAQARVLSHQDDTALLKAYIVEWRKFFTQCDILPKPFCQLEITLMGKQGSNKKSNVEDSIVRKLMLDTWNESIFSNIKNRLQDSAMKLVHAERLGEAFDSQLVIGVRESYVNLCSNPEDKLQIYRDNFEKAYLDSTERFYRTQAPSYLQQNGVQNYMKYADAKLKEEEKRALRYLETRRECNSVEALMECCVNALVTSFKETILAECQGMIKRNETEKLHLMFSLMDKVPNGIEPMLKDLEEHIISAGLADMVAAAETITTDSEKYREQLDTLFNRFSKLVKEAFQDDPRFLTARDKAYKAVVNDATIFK
Test: ITC titration of Cul5(N) to CBFβ alone
Format: binding
Details: FIG. 4D
Procedure: ITC experiments were conducted with a VP-ITC isothermal titration calorimeter (GE Healthcare) at temperatures ranging from 293.15 to 308.15 K using a reference power of 15 μcal s^−1 and a 307 rpm stirring rate. Purified protein was dialyzed for 8 h at 4° C. against 1300 volumes of ITC buffer A [0.125 M NaCl, 0.02 M HEPES (pH 7.4), 0.0002 M TCEP] or ITC buffer B [0.125 M NaCl, 0.02 M phosphate (pH 7.4), 0.0002 M TCEP]. Twenty-nine 10 μl aliquots of protein in the syringe were injected into the sample cell at time intervals ranging from 240 to 360 s. The concentration of protein in the syringe ranged from 120 to 210 μM, while the concentration of protein in the sample cell ranged from 12 to 27 μM. Errors in the thermodynamic parameters were obtained from the standard deviation resulting from average values with at least two replicates. […] As such, for all protein-into-protein experiments, the heats of injection were accounted for by subtracting the average heat of the last three injections from each data point of an experiment. All data were fit with the “One Set of Sites” curve-fitting model to determine the parameters Ka, n, and AH using the Origin software v7.0 (GE Healthcare). ΔG was calculated from ΔG=−RT ln Ka, where R=1.9872 cal K^−1 mol^−1, and T=absolute temperature (Kelvin). ΔS was calculated from the equation, ΔG=ΔH−TΔS.

B1: CBFβ: Recombinant human core-binding factor β subunit isoform 2 (protein, listed as Homo sapiens)
chain: MGHHHHHHLEVLFQGPPRVVPDQRSKFENEEFFRKLSRECEIKYTGFRDRPHEERQARFQNACRDGRSEIAFVATGTNLSLQFFPASWQGEQRQTPSREYVDLEREAGKVYLKAPMILNGVCVIWKGWIDLQRLDGMGCLEFDEERAQQEDALAQQAFEEARRRTREFEDRDRSHREEMEVRVSQLLAVTGKKTTRP
With B1 the “interaction of CBFβ with Cul5(N) alone” value was “did not interact”.
